Assay results: patent publication USRE50282
*1 amine or outer side, *2 acyl side, *3 side chain or, on linkers, in order; H or OH if unused. Bridges are numbered along the chain shown (N, C = ends). Primed or numbered codes have the meaning given here. The star is where a group is joined. Biotin = O=C1N[C@H]2[C@H](CS[C@H]2CCCCC(=O)*)N1; Glutaryl = O=C(CCCC(=O)[*:2])[*:1]; HOOC(CH2)6CO = O=C(O)CCCCCCC(=O)*; PEG4′ = not defined here

These binders were tested against human IgG (Chugai Pharmaceutical Co., Ltd.) (human) (assay: SPR (BIAcore T200), IgG immobilised).

Binder | fold decrease in affinity against Type I
{Biotin-PEG4′}-GDDCAYHKGELVWCTFH-NH2 (disulfide 4-14 (inferred)) [Type I(R8K) IgG-binding peptide, …-NH2] | 10 times

These binders were tested against human IgG (Chugai Pharmaceutical Co., Ltd.) (human) (assay: SPR (BIAcore T200), IgG immobilised; equilibrium value).

Binder | Kd
{Biotin-PEG4′}-GDDCAYHK(HOOC(CH2)6CO)GELVWCTFH-NH2 (disulfide 4-14 (inferred)) [Type I(R8K)-DSS-OH, GDDCAYHK(DSS-OH)…-NH2] | 389 nM
{Biotin-PEG4′}-GDDCAYHK(Glutaryl)GELVWCTFH-NH2 (disulfide 4-14 (inferred)) [Type I(R8K)-DSG-OH, GDDCAYHK(DSG-OH)…-NH2] | 330 nM
{Biotin-PEG4′}-GDDCAYHKGELVWCTFH-NH2 (disulfide 4-14 (inferred)) [Type I(R8K) IgG-binding peptide, …-NH2] | 131 nM
{Biotin-PEG4′}-GPDCAYHRGELVWCTFH-NH2 (disulfide 4-14 (inferred)) [Type I IgG-binding peptide, …-NH2] | 10 nM

What follows are binders tested against human IgG (Chugai Pharmaceutical Co., Ltd.) (human) (assay: SPR (BIAcore T200), IgG immobilised; 1:1 binding fit).

Binder | Kd
{Biotin-PEG4′}-GDDCAYHK(HOOC(CH2)6CO)GELVWCTFH-NH2 (disulfide 4-14 (inferred)) [Type I(R8K)-DSS-OH, GDDCAYHK(DSS-OH)…-NH2] | 365 nM
{Biotin-PEG4′}-GDDCAYHK(Glutaryl)GELVWCTFH-NH2 (disulfide 4-14 (inferred)) [Type I(R8K)-DSG-OH, GDDCAYHK(DSG-OH)…-NH2] | 315 nM
{Biotin-PEG4′}-GDDCAYHKGELVWCTFH-NH2 (disulfide 4-14 (inferred)) [Type I(R8K) IgG-binding peptide, …-NH2] | 156 nM
{Biotin-PEG4′}-GPDCAYHRGELVWCTFH-NH2 (disulfide 4-14 (inferred)) [Type I IgG-binding peptide, …-NH2] | 9.1 nM
